In publication PMC10922747 (Cell, 2024):

Key:
[1] = biological target: the molecule itself; test: cryo-EM structure
[2] = biological target: the molecule itself; test: negative-stain EM

B1: mouse PNMA2 (mPNMA2) protein (full length) (natural protein, UniProt Q8BHK0 1-365, looked up)
chain: MAVALLEEWCKIMGVDVQKSLLVVDIPVDCGEPEIQTVLQEALKCVGSYRLLGKIFQKQDNTSVVLVELMEDTDMSVVPSEVQGKGGVWKVIFKTPNQDTEFLQRLNLFLEKEGQTVAGMFRALKHEGVSPATPPCTSPELLAHLTGQAMVHGQRPLLPVKYCKMRIFSGSTAAAPEEEPFEVWLEQATEIAKEWPIPEAEKKRWVAESLRGPALDLMHIVQADNPSISVGECLEAFKQVFGSTESRRTSQVKYLRTYQQEGEKISAYVLRLETLLRRAVEKRAIPRNIADQVRLEQVMAGANLGNVLWCRLQELKDQGPLPTFLQLMKVIREEEEEEDAYFEQESREEPGEREGSGCWNNSRNN
With B1 the “stoichiometry N” value [1] was 60.

B2: human PNMA2 (hPNMA2) protein (full length) (natural protein, UniProt Q9UL42 1-364, looked up)
chain: MALALLEDWCRIMSVDEQKSLMVTGIPADFEEAEIQEVLQETLKSLGRYRLLGKIFRKQENANAVLLELLEDTDVSAIPSEVQGKGGVWKVIFKTPNQDTEFLERLNLFLEKEGQTVSGMFRALGQEGVSPATVPCISPELLAHLLGQAMAHAPQPLLPMRYRKLRVFSGSAVPAPEEESFEVWLEQATEIVKEWPVTEAEKKRWLAESLRGPALDLMHIVQADNPSISVEECLEAFKQVFGSLESRRTAQVRYLKTYQEEGEKVSAYVLRLETLLRRAVEKRAIPRRIADQVRLEQVMAGATLNQMLWCRLRELKDQGPPPSFLELMKVIREEEEEEASFENESIEEPEERDGYGRWNHEGDD
B2: binds [2].
